Assay results as given in US20210363269A1 (ALX ONCOLOGY, published 2021).

T1: BALBc mouse SIRP-α (mouse (BALB/c strain))
T1 chain: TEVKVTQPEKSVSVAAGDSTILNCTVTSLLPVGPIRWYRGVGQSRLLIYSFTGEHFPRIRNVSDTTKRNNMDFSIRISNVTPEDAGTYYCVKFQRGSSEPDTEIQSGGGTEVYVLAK

T2: NOD mouse SIRP-α (mouse (NOD strain))
T2 chain: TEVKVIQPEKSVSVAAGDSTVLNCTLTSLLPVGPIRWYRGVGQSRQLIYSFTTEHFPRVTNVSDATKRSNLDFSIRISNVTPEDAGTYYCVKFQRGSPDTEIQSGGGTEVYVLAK

T3: cynomolgus SIRP-α (cynomolgus monkey, UniProt Q5TFQ8 30-148 (human entry), limits assumed)
T3 construct: also called cyno1
T3 chain: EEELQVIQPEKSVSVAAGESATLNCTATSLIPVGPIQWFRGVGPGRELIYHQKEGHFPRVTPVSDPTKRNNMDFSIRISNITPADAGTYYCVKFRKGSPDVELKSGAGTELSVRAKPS

T4: BL6 mouse SIRP-α (mouse (C57BL/6 strain), UniProt P97797 32-148)
T4 construct: also called C57BL/6
T4 sequence: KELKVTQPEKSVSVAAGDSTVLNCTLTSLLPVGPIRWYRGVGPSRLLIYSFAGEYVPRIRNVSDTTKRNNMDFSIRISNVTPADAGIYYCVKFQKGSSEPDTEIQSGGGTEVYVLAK


Assays:
Test in all cases: SPR, antibody on GLC chip
[1] = biological target: T1, BALBc mouse SIRP-α
Summary of the method: (§1)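 SIRP analytes were run over antibody surfaces in PBS pH 7.4 with 0.01% Tween-20 at 25° C, using one-shot injections at 100, 33, 11, 3.7, 1.2 and 0 nM. The antibodies, purified by Protein A, had been amine-coupled (~1000 RU) to a GLC chip of a ProteOn XPR36 biosensor from an 80 nM solution in 10 mM sodium acetate pH 4.5. Association lasted 90 s at a flow of 100 μL/min, and dissociation lasted 1200 s. KD equals kd/ka, obtained by fitting double-referenced data globally to a Langmuir model.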

[2] = biological target: T5, human SIRP-α v1 (human, UniProt P78324 31-149)
T5 construct: also called Human v1; Human V1
T5 sequence (P78324 31-149 limits assumed): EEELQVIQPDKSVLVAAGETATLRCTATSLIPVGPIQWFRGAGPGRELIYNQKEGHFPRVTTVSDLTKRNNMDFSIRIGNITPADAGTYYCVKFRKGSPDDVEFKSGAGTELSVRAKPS
Summary of the method: as §1

[3] = biological target: T2, NOD mouse SIRP-α
Summary of the method: as §1

[4] = biological target: T6, human SIRPγ isoform 1 (human, UniProt Q9P1W8 29-147)
T6 construct: also called Gamma; Human SIRPg
T6 sequence (Q9P1W8 29-147 limits assumed): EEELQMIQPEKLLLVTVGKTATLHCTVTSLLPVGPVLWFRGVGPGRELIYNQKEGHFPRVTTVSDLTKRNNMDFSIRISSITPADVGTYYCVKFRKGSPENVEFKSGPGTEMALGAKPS
Summary of the method: as §1

[5] = biological target: T3, cynomolgus SIRP-α
Summary of the method: as §1

[6] = biological target: T4, BL6 mouse SIRP-α
Summary of the method: as §1

[7] = biological target: T7, human SIRP-α v2 (human)
T7 construct: also called Human v2; Human V2
T7 sequence (chain, as listed by the source limits assumed): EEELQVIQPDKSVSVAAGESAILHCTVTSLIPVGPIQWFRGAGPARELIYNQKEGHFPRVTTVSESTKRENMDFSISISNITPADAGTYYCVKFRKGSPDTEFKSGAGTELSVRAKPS
Summary of the method: as §1

| Binder | binding result [1] | Kd [2] [nM] | binding result [3] | Kd [4] [nM] | Kd [5] [nM] | binding result [6] | Kd [7] [nM] |
| --- | --- | --- | --- | --- | --- | --- | --- |
| antibody 119 variant, light chain Mut / heavy chain wt (antibody, V domains shown) VH: DVQLLESGGGVVQPGGSLRLSCAASGFSFSNFAMTWVRQAPGEGLEWVSTIGSGDTYYADSVKGRFTISRDNSKNTLYLQMNSLRAEDTAVYYCAKDSTVSWSGDFFDYWGLGTLVTVSS VL: EIVLTQSPATLSVSPGERATLSCRASQNVKNDLAWYQQKPGQAPRLLIYAARIRETGIPARFSGSGSGTEFTLTISSLQSEDFAVYYCQQYYDWPPFTFGGGTKVEIK | no binding | 0.214 | no binding | 0.233 | 0.138 | no binding | 0.0864 |
| antibody 135 variant, light chain Mut / heavy chain wt (antibody, V domains shown) VH: DVQLVESGGGVVRPGESLRLSCAASGFSFSIYAMSWVRQAPGEGLEWVSTIGADDTYYADSVKGRFTISRDNSKNTLYLQMNSLRAEDTAVYYCAKDSTVGWSGDFFDYWGLGTLVTVSS VL: EIVLTQSPATLSVSPGERVTLSCRASQNVRSDIAWYQQKPGQAPRLLIYAASSRDTGIPARFSGSGSGTDFTLTISSLQSEDFGVYYCQQYYDWPPFTFGGGTKVEIK | no binding | 0.149 | no binding | 0.522 | 0.102 | no binding | 0.0266 |
| antibody 135 variant, light chain wt / heavy chain Mut (antibody, V domains shown) VH: EVQLVESGGGVVQPGGSLRLSCAASGFSFSIYAVSWVRQAPGKGLEWVSTIGADDTYYADSVKGRFTISRDNSKNTLYLQMNSLRAEDTAVYYCAKDSTVGWSGDFFDYWGQGTLVTVSS VL: EIVLTQSPATLSVSPGERVTFSCRASQNVRSDIAWYQQKPGQAPRLLIYAASSRDTGIPDRFSGSGSGTDFTLTISSLQSEDFGVYYCQQYYDWPPFTFGGGTKVEIK | no binding | 0.184 | no binding | 0.779 | 0.125 | no binding | 0.0197 |
| antibody 119 variant, light chain wt / heavy chain Mut (antibody, human IgG1, V domains shown) VH: EVQLLESGGGVVQPGGSLRLSCAASGFSFSNFAVTWVRQAPGKGLEWVSTIGSGDTYYADSVKGRFTISRDNSKNTLYLQMNSLRAEDTAVYYCAKDSTVSWSGDFFDYWGQGTLVTVSS VL: EIVLTQSPATLSVSPGERATFSCRASQNVKNDLAWYQQRPGQAPRLLIYAARIRETGIPERFSGSGSGTEFTLTITSLQSEDFAVYYCQQYYDWPPFTFGGGTKVEIK | no binding | 0.254 | no binding | – | 0.155 | no binding | 0.0694 |
